Experiment [1] has as its target ATM (biolayer interferometry) (UniProt Q13315). In words: BLI.
The target is the same in experiment [2]. In words: BLI; in vitro; SPOP peptide bound to ATM, measured by diffracted light wavelength.

SPOP wild-type peptide, sequence (O43791 whole entry, looked up, tested part not stated): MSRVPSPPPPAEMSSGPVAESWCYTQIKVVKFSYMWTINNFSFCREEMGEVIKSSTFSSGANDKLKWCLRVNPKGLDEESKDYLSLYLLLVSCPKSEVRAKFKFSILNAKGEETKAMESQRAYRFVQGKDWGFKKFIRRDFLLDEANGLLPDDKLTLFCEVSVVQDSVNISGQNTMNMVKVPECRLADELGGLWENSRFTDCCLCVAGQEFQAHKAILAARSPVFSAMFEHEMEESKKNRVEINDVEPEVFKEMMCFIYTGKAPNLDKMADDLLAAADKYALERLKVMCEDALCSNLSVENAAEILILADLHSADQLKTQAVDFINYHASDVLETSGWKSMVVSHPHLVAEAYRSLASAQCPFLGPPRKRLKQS

In turn, “SPOP wild-type peptide (from UniProt O43791)” came in with a Kd in experiment [1] of 0.0698 µM.

In the case of SPOP wild-type peptide, the amount bound relative to the mutant peptide in experiment [2] amounted to 2 fold.

In experiment [1], “SPOP S119N mutant peptide (from UniProt O43791)” registered a Kd of 45.5 µM.

(Values after paper PMC7809020.)
